This is an account of results in patent US20220259318A1 (Hoffmann-La Roche, published 2022).

Experiment [1] has as its target T1, human GPRC5D (human, UniProt Q9NZD1 1-345). Briefly: cell-based or functional assay.
Experiment [2] has as its target T1, human GPRC5D. Briefly: cell ELISA, CHO hu GPRC5D (EC/IC50 rel). Here is the method: Stable transfected CHO clones expressing either human GPRCSD or cynomolgus GPRCSD or murine GPRCSD or human GPRCSA were used to analyze the binding of potential lead candidate antibodies as IgGs. In detail, 10⁴ cells (viability≥98%) were seeded into 384 well-microtiter plates (BD Poly D-Lysin, #356662, volume: 25 μl/well) using fresh culture medium. After overnight incubation at 37° C., 25 μl/well dilutions of antibodies were added (15×1:3 dilutions in 1×PBS, assay conc. starts at 30 μg/ml) to the cells for 2 hours at 4° C. After one washing step using 90 μl/well PBST (10×PBS, Roche, #11666789001+0.1% Tween 20), cells were subsequently fixed by the addition of 50 μl/well 0.05% glutaraldehyde (Sigma Cat. No: G5882 in 1×PBS) for 10 min at room temperature (RT). After three additional washing steps using 90 μl/well PBST, secondary antibodies were added for detection: for human antibodies goat anti-human Ig a chain antibody HRP conjugate (Millipore #AP502P) diluted 1:2000 in blocking buffer (1×PBS (Roche #11666789001)+2% BSA (Bovine Serum Albumin Fraction V, fatty acid free, Roche, #10735086001)+0.05% Tween 20) was used (25 μl/well). […] After incubation for 1 h at RT and three additional washing steps using 90 μl/well PBST, 25 μl/well TMB substrate was added (Roche order no. 11835033001) for 10 min and color development to final ODs was determined by measurement at 370 nm/492 nm.
For the characterization of the humanization variants of the VH and VL domains of the GPRC5D binders the ELISA protocol as described above was used (see Example 7). The data are summarized in the table 10 for the humanization variants of 5E11 and in table 11 for the humanization variants of 5F11.
(In general: ELISA stands for enzyme-linked immunosorbent assay.)

Where “and” joins values, the source holds several entries; their conditions need not be identical. Equal entries are not always repeated.

T1 sequence (Q9NZD1 whole entry): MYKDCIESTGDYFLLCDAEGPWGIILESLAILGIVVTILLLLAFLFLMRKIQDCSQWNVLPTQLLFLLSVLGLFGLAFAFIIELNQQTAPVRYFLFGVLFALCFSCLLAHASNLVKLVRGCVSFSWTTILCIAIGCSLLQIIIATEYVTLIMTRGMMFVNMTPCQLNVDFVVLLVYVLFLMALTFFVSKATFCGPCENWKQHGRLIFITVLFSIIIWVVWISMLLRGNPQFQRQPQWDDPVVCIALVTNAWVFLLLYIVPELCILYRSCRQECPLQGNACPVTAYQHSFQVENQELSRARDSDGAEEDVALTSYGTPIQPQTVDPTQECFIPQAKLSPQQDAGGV

B1: P1AE5739 (antibody, V domains shown)
VH: EVQLVESGGGVVQPGRSLRLSCAASGFSFSNYGMAWVRQAPGKGLEWVASISTGGGNTYYRDSVKGRFTISRDNAKNTLYLQMNSLRAEDTAVYYCTRHDRGGLYWGQGTMVTVSS
VL: DIVMTQSPLSLPVTPGEPASISCRSSKSLLHSNGITYVYWYLQKPGQSPQVLIYRMSNLASGVPDRFSGSGSGTDFTLKISRVEAEDVGVYHCGQLLENPYTFGQGTKLEIK
notes: Humanized 5F11 IgG; PGLALA Fc implied by the CAR-J assay; also called 5F11_VH1b + 5F11_VL1a
One may read the EC50 as the concentration needed to bring the measured effect to its halfway point. A high value points to lower potency in that assay. In the case of B1, the “CAR-J2 EC50 [ng/mL] (PGLALA-CAR-J activation, L363 target cells)” value (“CAR-J2 EC50 [ng/mL]” for short) with human GPRC5D [1] worked out at 23.5 ng/mL. Moreover, the half-maximal effective concentration (EC50) in the experiment with human GPRC5D [2] is 0.004 µg/mL and 0.03 nM.

B2: P1AE5735 (antibody, V domains shown)
VH: QVQLVESGGGVVQPGRSLRLSCAASGFSFSNYGMAWVRQAPGKGLEWVASISTGGGNTYYRDSVKGRFTISRDNSKNTLYLQMNSLRAEDTAVYYCTRHDRGGLYWGQGTMVTVSS
VL: DIVMTQSPLSLPVTPGEPASISCRSSKSLLHSNGITYVYWYLQKPGKSPQVLIYRMSNLASGVPDRFSGSGSGTDFTLKISRVEAEDVGVYHCGQLLENPYTFGQGTKLEIK
notes: Humanized 5F11 IgG; PGLALA Fc implied by the CAR-J assay; also called 5F11_VH1a + 5F11_VL1b
In the case of B2, the “CAR-J2 EC50 [ng/mL]” value with human GPRC5D [1] was found to be 82.1 ng/mL. For the same molecule, the EC50 with human GPRC5D [2] is 0.0066 µg/mL and 0.04 nM.

B3: P1AE5734 (antibody, V domains shown)
VH: QVQLVESGGGVVQPGRSLRLSCAASGFSFSNYGMAWVRQAPGKGLEWVASISTGGGNTYYRDSVKGRFTISRDNSKNTLYLQMNSLRAEDTAVYYCTRHDRGGLYWGQGTMVTVSS
VL: DIVMTQSPLSLPVTPGEPASISCRSSKSLLHSNGITYVYWYLQKPGQSPQVLIYRMSNLASGVPDRFSGSGSGTDFTLKISRVEAEDVGVYHCGQLLENPYTFGQGTKLEIK
notes: Humanized 5F11 IgG; PGLALA Fc implied by the CAR-J assay; also called 5F11_VH1a + 5F11_VL1a
Turning to B3, in the experiment with human GPRC5D [1], the “CAR-J2 EC50 [ng/mL]” value was 41.5 ng/mL. The concentration for a half-maximal effect (EC50) with human GPRC5D [2] is 0.0055 µg/mL and 0.04 nM.

B4: P1AE5750 (antibody, V domains shown)
VH: EVQLVESGGGVVQPGRSLRLSCAASGFSFSNYGMAWVRQAPGKGLEWVASISTGGGNTYYADSVKGRFTISRDNAKNTLYLQMNSLRAEDTAVYYCTRHDRGGLYWGQGTMVTVSS
VL: DIVMTQSPLSLPVTPGEPASISCRSSKSLLHSNGITYVYWYLQKPGQSPQVLIYRMSNLASGVPDRFSGSGSGTDFTLKISRVEAEDVGVYHCGQLLENPYTFGQGTKLEIK
notes: Humanized 5F11 IgG; PGLALA Fc implied by the CAR-J assay; also called 5F11_VH1d + 5F11_VL1a
On to B4, for which the “CAR-J2 EC50 [ng/mL]” value with human GPRC5D [1] worked out at 20.6 ng/mL. Moreover, the EC50 with human GPRC5D [2] is 0.0094 µg/mL and 0.06 nM.

B5: P1AE5736 (antibody, V domains shown)
VH: QVQLVESGGGVVQPGRSLRLSCAASGFSFSNYGMAWVRQAPGKGLEWVASISTGGGNTYYRDSVKGRFTISRDNSKNTLYLQMNSLRAEDTAVYYCTRHDRGGLYWGQGTMVTVSS
VL: DIVMTQSPLSLPVTPGEPASISCRSSKSLLHSNGITYVYWYLQKPGQSPQLLIYRMSNRASGVPDRFSGSGSGTDFTLKISRVEAEDVGVYHCGQLLENPYTFGQGTKLEIK
notes: Humanized 5F11 IgG; PGLALA Fc implied by the CAR-J assay; also called 5F11_VH1a + 5F11_VL2a
As for B5, the “CAR-J2 EC50 [ng/mL]” value with human GPRC5D [1] amounted to 1.38 ng/mL. In addition, the EC50 in the experiment with human GPRC5D [2] is 0.0037 µg/mL and 0.02 nM.

B6: P1AE5746 (antibody, V domains shown)
VH: QVQLVESGGGVVQPGRSLRLSCAASGFSFSNYGMAWVRQAPGKGLEWVASISTGGGNTYYADSVKGRFTISRDNSKNTLYLQMNSLRAEDTAVYYCTRHDRGGLYWGQGTMVTVSS
VL: DIVMTQSPLSLPVTPGEPASISCRSSKSLLHSNGITYVYWYLQKPGQSPQLLIYRMSNRASGVPDRFSGSGSGTDFTLKISRVEAEDVGVYHCGQLLENPYTFGQGTKLEIK
notes: Humanized 5F11 IgG; PGLALA Fc implied by the CAR-J assay; also called 5F11_VH1c + 5F11_VL2a
On to B6, for which the “CAR-J2 EC50 [ng/mL]” value with human GPRC5D [1] was 514 ng/mL. Moreover, the 50% effective concentration (EC50) in the experiment with human GPRC5D [2] was 0.0107 µg/mL and 0.07 nM.

B7: P1AE5740 (antibody, V domains shown)
VH: EVQLVESGGGVVQPGRSLRLSCAASGFSFSNYGMAWVRQAPGKGLEWVASISTGGGNTYYRDSVKGRFTISRDNAKNTLYLQMNSLRAEDTAVYYCTRHDRGGLYWGQGTMVTVSS
VL: DIVMTQSPLSLPVTPGEPASISCRSSKSLLHSNGITYVYWYLQKPGKSPQVLIYRMSNLASGVPDRFSGSGSGTDFTLKISRVEAEDVGVYHCGQLLENPYTFGQGTKLEIK
notes: Humanized 5F11 IgG; PGLALA Fc implied by the CAR-J assay; also called 5F11_VH1b + 5F11_VL1b
In the case of B7, the “CAR-J2 EC50 [ng/mL]” value in the experiment with human GPRC5D [1] was found to be 8.96 ng/mL. The EC50 in the experiment with human GPRC5D [2] is 0.0063 µg/mL and 0.04 nM.
